Like-named read-outs stand apart in the source and are kept apart here. Values belong to the substance of their own block, whether it stands above or below them.
What was measured:
Experiment in all cases: cell-based or functional assay
[1] = biological target: OPRM1-PK (opiod receptor mu-1 fused to PK) (E. coli) (UniProt P35372); design: EC50, arrestin-EA recruitment to OPRM1-PK (EFC) (M (unit not given)): unit not given beside the values
OPRD1-PK fusion protein [2] = biological target: OPRD1-PK fusion protein; design: EC50, arrestin-EA recruitment to OPRD1-PK (EFC) (M (unit not given)): unit not given beside the values
PROKR2, not fused = PROKR2, not fused (UniProt Q8NFJ6); design: EC50, arrestin-EA recruitment to OPRM1-PK (EFC), cells headed 'OPRM1 + PRC' (M (unit not given)): unit not given beside the values
[3] = biological target: CRTH2-PK2 (G Protein-coupled receptor 44 fused to PK2) (E. coli) (UniProt Q9Y5Y4); design: EC50 of prostaglandin for arrestin-EA recruitment, EFC (M (unit not given)): unit not given beside the values
[4] = biological target: CHRM2-PK2 (cholinergic receptor, muscarinic 2, fused to PK2) (E. coli) (UniProt P08172); design: EC50 of oxotremorine for arrestin-EA recruitment, EFC (M (unit not given)): unit not given beside the values
[5] = biological target: OPRM1-PK (opiod receptor mu-1 fused to PK) (E. coli) (UniProt P35372); design: EC50, arrestin-EA recruitment to OPRM1-PK (EFC), cells headed 'OPRM1 + PRC' (M (unit not given)): unit not given beside the values
[6] = biological target: CCR4-PK1 (chemokine receptor 4 fused to PK1) (E. coli) (UniProt P51679)
[7] = biological target: CCR4-PK2 (chemokine receptor 4 fused to PK2) (E. coli) (UniProt P51679)
[8] = biological target: CHRM2-PK1 (cholinergic receptor, muscarinic 2, fused to PK1) (E. coli) (UniProt P08172)
[9] = biological target: CHRM2-PK2 (cholinergic receptor, muscarinic 2, fused to PK2) (E. coli) (UniProt P08172)
[10] = biological target: CHRM3 with the EGS linker and PK (UniProt P20309)
[11] = biological target: CRHR2-PK1 (corticotropin releasing hormone receptor 2 fused to PK1) (E. coli) (UniProt Q13324)
[12] = biological target: CRHR2-PK2 (corticotropin releasing hormone receptor 2 fused to PK2) (E. coli) (UniProt Q13324)
[13] = biological target: CRTH2-PK1 (G Protein-coupled receptor 44 fused to PK1) (E. coli) (UniProt Q9Y5Y4)
[14] = biological target: CRTH2-PK2 (G Protein-coupled receptor 44 fused to PK2) (E. coli) (UniProt Q9Y5Y4)
[15] = biological target: HRH3 with the EGS linker and PK (UniProt Q9Y5N1)
[16] = biological target: MC3R-PK1 (melanocortin 3 receptor fused to PK1) (E. coli) (UniProt P41968)
[17] = biological target: MC3R-PK2 (melanocortin 3 receptor fused to PK2) (E. coli) (UniProt P41968)
OPRD1-PK fusion protein [18] = biological target: OPRD1-PK fusion protein
[19] = biological target: OPRM1-PK (opiod receptor mu-1 fused to PK) (E. coli) (UniProt P35372)
[20] = biological target: OPRM1-PK2 (opiod receptor mu-1 fused to PK2) (E. coli) (UniProt P35372)
[21] = biological target: SSTR1-PK2 (somatostatin receptor 1 fused to PK2) (E. coli) (UniProt P30872)
[22] = biological target: SSTR4 with the EGS linker and PK (UniProt P31391)
[23] = biological target: SSTR4-PK without the EGS linker (UniProt P31391)
[24] = biological target: CHRM2-PK2 (cholinergic receptor, muscarinic 2, fused to PK2) (E. coli) (UniProt P08172); remark: listed apart in the source
[25] = biological target: SSTR1-PK2 (somatostatin receptor 1 fused to PK2) (E. coli) (UniProt P30872); remark: listed apart in the source
[26] = biological target: OPRD1 (opiod receptor delta 1), not fused (UniProt P41143)

Chain of HRH3 with the EGS linker and PK (Q9Y5N1 other isoform, or with tags, fused parts or gaps): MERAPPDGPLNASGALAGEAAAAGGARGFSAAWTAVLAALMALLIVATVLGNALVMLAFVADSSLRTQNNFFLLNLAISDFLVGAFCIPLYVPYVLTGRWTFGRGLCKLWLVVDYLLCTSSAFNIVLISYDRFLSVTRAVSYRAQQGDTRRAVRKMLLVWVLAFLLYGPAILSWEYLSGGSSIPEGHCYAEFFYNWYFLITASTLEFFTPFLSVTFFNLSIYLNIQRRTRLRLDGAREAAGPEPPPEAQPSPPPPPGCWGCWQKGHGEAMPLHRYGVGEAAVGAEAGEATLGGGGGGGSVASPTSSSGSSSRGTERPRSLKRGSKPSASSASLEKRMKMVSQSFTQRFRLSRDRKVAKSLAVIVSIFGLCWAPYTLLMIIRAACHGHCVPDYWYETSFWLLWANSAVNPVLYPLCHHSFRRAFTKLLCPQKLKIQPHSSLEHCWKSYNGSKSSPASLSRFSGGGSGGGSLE
Chain of SSTR4 with the EGS linker and PK (P31391 other isoform, or with tags, fused parts or gaps): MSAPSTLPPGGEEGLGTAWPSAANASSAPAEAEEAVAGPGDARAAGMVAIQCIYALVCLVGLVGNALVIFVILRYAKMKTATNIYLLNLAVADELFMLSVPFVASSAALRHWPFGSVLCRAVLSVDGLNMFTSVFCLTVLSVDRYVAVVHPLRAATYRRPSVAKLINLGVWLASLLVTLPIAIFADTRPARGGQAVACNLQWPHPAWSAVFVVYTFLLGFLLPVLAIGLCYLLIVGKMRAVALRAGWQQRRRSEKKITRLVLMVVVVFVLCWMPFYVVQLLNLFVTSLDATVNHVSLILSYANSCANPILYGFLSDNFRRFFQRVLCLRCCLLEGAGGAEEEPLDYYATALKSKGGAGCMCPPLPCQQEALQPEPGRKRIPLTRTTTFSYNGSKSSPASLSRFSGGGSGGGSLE
Chain of PROKR2, not fused (Q8NFJ6 whole entry, the tested form may be a part): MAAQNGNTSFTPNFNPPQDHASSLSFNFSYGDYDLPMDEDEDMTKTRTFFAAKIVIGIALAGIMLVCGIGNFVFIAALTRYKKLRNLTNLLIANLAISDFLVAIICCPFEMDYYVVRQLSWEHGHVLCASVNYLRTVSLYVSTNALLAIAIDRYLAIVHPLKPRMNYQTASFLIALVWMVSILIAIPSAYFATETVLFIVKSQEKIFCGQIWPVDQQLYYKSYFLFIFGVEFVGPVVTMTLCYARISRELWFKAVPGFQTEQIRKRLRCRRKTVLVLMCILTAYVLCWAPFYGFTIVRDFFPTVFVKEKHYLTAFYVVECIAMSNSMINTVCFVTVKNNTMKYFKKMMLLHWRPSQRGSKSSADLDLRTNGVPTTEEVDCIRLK
Chain of SSTR4-PK without the EGS linker (P31391 other isoform, or with tags, fused parts or gaps): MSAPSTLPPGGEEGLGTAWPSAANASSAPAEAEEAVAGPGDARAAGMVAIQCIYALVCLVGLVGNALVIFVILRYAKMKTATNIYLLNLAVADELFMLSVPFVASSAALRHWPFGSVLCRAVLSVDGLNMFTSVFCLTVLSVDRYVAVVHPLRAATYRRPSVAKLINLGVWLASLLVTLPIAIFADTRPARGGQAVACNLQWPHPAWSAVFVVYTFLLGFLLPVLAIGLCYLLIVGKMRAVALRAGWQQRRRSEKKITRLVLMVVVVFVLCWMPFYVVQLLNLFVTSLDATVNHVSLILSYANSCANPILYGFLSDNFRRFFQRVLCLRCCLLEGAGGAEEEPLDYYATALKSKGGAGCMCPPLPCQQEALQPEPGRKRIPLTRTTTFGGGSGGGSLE

EC50, arrestin-EA recruitment to OPRM1-PK (EFC) (M (unit not given)) [1]: 1.11e-07
Substance: DADLE (peptide; in M (unit assumed))

EC50, arrestin-EA recruitment to OPRM1-PK (EFC) (M (unit not given)) [1]: 0.0007 | LOGEC50, arrestin-EA recruitment to OPRM1-PK (EFC) (log M (unit not given)) [1]: -3.12 | EC50, arrestin-EA recruitment to co-expressed OPRM1-PK (EFC, transactivation) [26]: 8.38 nM | LOGEC50, arrestin-EA recruitment to co-expressed OPRM1-PK (EFC, transactivation) (log M (unit not given)) [26]: -8.08
Substance: deltorphin (peptide)

Further lines, the substance ahead of its results:

Substance: DADLE (peptide)
LOGEC50, arrestin-EA recruitment to OPRM1-PK (EFC) (log M (unit not given)) [1]: -6.95

Substance: DAMAGO, [D-Ala2,N-Me-Phe4,Gly5-ol]-enkephalin (peptide)
EC50, arrestin-EA recruitment to OPRD1-PK (EFC) (M (unit not given)) (OPRD1-PK fusion protein [2]): 3.64e-05 | LOGEC50, arrestin-EA recruitment to OPRD1-PK (EFC) (log M (unit not given)) (OPRD1-PK fusion protein [2]): -4.44

Substance: EG-VEGF (from UniProt P58294 20-105) (ligand)
EC50, arrestin-EA recruitment to OPRM1-PK (EFC), cells headed 'OPRM1 + PRC' (M (unit not given)) (PROKR2, not fused): 3.21e-08 | LOGEC50, arrestin-EA recruitment to OPRM1-PK (EFC), cells headed 'OPRM1 + PRC' (log M (unit not given)) (PROKR2, not fused): -7.49

Substance: arrestin-EA fusion protein (beta arrestin fused at its C terminus to the EA fragment of β-galactosidase) (from UniProt P49407 1-418; P00722 48-1024)
BOTTOM of the agonist dose-response fit, EFC chemiluminescence [3]: 29200 | LOGEC50 of prostaglandin for arrestin-EA recruitment, EFC (log M (unit not given)) [3]: -6.76 | TOP of the agonist dose-response fit, EFC chemiluminescence [3]: 76000 | BOTTOM of the agonist dose-response fit, EFC chemiluminescence [4]: 336 | EC50 of oxotremorine for arrestin-EA recruitment, EFC (M (unit not given)) [4]: 6.29e-05 | LOGEC50 of oxotremorine for arrestin-EA recruitment, EFC (log M (unit not given)) [4]: -5.2 | TOP of the agonist dose-response fit, EFC chemiluminescence [4]: 2040 | BOTTOM of the DADLE dose-response fit, EFC chemiluminescence, U2OS cells with OPRM1-PK [1]: 626 | S:B with DADLE, EFC chemiluminescence, U2OS cells with OPRM1-PK [1]: 32.7 | S:B with deltorphin, EFC chemiluminescence, U2OS cells with OPRM1-PK only [1]: 2.5 | TOP of the DADLE dose-response fit, EFC chemiluminescence, U2OS cells with OPRM1-PK [1]: 17100 | BOTTOM of the OPRM1-agonist dose-response fit, EFC chemiluminescence, CHO cells with OPRD1-PK (OPRD1-PK fusion protein [2]): 520 | TOP of the OPRM1-agonist dose-response fit, EFC chemiluminescence, CHO cells with OPRD1-PK (OPRD1-PK fusion protein [2]): 2810 | BOTTOM of the EG-VEGF dose-response fit, EFC chemiluminescence, cells headed 'OPRM1 + PRC' [5]: 25.8 | TOP of the EG-VEGF dose-response fit, EFC chemiluminescence, cells headed 'OPRM1 + PRC' [5]: 57.3 | S:B, EFC chemiluminescence [6]: 19 | S:B, EFC chemiluminescence [7]: 3 | S:B, EFC chemiluminescence [8]: 1.6 | S:B, EFC chemiluminescence [9]: 6.1 | BOTTOM of the agonist dose-response fit, EFC chemiluminescence [10]: 546 | EC50 of the agonist (not named) for arrestin-EA recruitment, EFC [10]: 82.2 nM | LOGEC50 of the agonist (not named) for arrestin-EA recruitment, EFC (log M (unit not given)) [10]: -7.08 | TOP of the agonist dose-response fit, EFC chemiluminescence [10]: 1550 | S:B, EFC chemiluminescence [11]: 13 | S:B, EFC chemiluminescence [12]: 17 | S:B, EFC chemiluminescence [13]: 1 | S:B, EFC chemiluminescence [14]: 2.6 | BOTTOM of the agonist dose-response fit, EFC chemiluminescence [15]: 273 | EC50 of the agonist (not named) for arrestin-EA recruitment, EFC [15]: 55.2 nM | LOGEC50 of the agonist (not named) for arrestin-EA recruitment, EFC (log M (unit not given)) [15]: -7.26 | TOP of the agonist dose-response fit, EFC chemiluminescence [15]: 935 | S:B, EFC chemiluminescence [16]: 1 | S:B, EFC chemiluminescence [17]: 3.2 | BOTTOM of the OPRM1-agonist dose-response fit, EFC chemiluminescence, CHO cells with OPRD1-PK and OPRM1 (OPRD1-PK fusion protein [18]): 20.3 | S:B, EFC chemiluminescence, CHO cells with OPRD1-PK and OPRM1 (OPRD1-PK fusion protein [18]): 31.9 | TOP of the OPRM1-agonist dose-response fit, EFC chemiluminescence, CHO cells with OPRD1-PK and OPRM1 (OPRD1-PK fusion protein [18]): 201 | BOTTOM of the OPRM1-agonist dose-response fit, EFC chemiluminescence, U2OS cells with OPRM1-PK [19]: 1010 | S:B with deltorphin, EFC chemiluminescence, U2OS cells with OPRM1-PK and OPRD1 [19]: 7.4 | S:B, EFC chemiluminescence [19]: 26 | TOP of the OPRM1-agonist dose-response fit, EFC chemiluminescence, U2OS cells with OPRM1-PK [19]: 10900 | S:B, EFC chemiluminescence [20]: 8 | BOTTOM of the agonist dose-response fit, EFC chemiluminescence [21]: 4800 | EC50 of the agonist (not named) for arrestin-EA recruitment, EFC [21]: 8.15 nM | LOGEC50 of the agonist (not named) for arrestin-EA recruitment, EFC (log M (unit not given)) [21]: -8.09 | TOP of the agonist dose-response fit, EFC chemiluminescence [21]: 10500 | BOTTOM of the agonist dose-response fit, EFC chemiluminescence [22]: 1380 | EC50 of the agonist (not named) for arrestin-EA recruitment, EFC [22]: 0.732 nM | LOGEC50 of the agonist (not named) for arrestin-EA recruitment, EFC (log M (unit not given)) [22]: -9.14 | TOP of the agonist dose-response fit, EFC chemiluminescence [22]: 3420 | response in the EFC arrestin assay, CHO cells [23]: 1.5 fold | EC50 of oxotremorine for arrestin-EA recruitment, EFC [24]: 6290 nM | BOTTOM of the agonist dose-response fit, EFC chemiluminescence [25]: 4790 | Log EC50 of the agonist (not named) for arrestin-EA recruitment, EFC (log M (unit not given)) [25]: -8.07

Substance: arrestin-EA fusion protein (beta arrestin fused at its C terminus to the EA fragment of β-galactosidase) (from UniProt P49407 1-418; P00722 48-1024) (other; in M (unit assumed))
EC50 of prostaglandin for arrestin-EA recruitment, EFC (M (unit not given)) [3]: 1.74e-07
